{"source": "paper PMC5957528", "about": "“Boosting ATM activity alleviates aging and extends lifespan in a mouse model of progeria” (eLife, 2018)", "key": {"SIRT6": {"biological_target": "SIRT6 (UniProt Q8N6T7)", "assay": "anti-HA co-IP, ATM immunoblot", "conditions": "reference: Flag-ATM wild type; sites S1981"}, "MDM2": {"biological_target": "MDM2 (UniProt Q00987)", "assay": "anti-Flag co-IP, MDM2 immunoblot", "conditions": "reference: Flag-SIRT6 wild type; sites S112"}, "His-SIRT6": {"biological_target": "T1, His-SIRT6 (human, UniProt Q8N6T7 1-355)", "T1 construct": "SIRT6, human; also called 6 × His tagged SIRT6; purified His-SIRT6; source: bacterially expressed, purified", "assay": "pull-down; GST pull-down: bacterially expressed 6 × His SIRT6 incubated separately with GST-ATM fragments in 150 mM NaCl, 20 mM Tris-HCl pH 7.5, 5 mM MgCl2, 0.2 mM EDTA, 10% glycerol, 0.2% NP-40; Glutathione Sepharose; washed with TEN buffer (300 mM NaCl)", "conditions": "both partners purified"}}, "data": [{"molecule": "ATM (from UniProt Q13315) Flag-ATM S1981A", "values": [{"measurement": "binding against the reference", "setting": "SIRT6", "value": "lost"}]}, {"molecule": "SIRT6 (from UniProt Q8N6T7) Flag-SIRT6 S112A", "values": [{"measurement": "binding against the reference", "setting": "MDM2", "value": "stronger"}]}, {"molecule": "GST-ATM-4 (residues 770–1102) (domain or fragment, human, UniProt Q13315 770-1102, looked up, source: recombinant GST fusion (pGEX4T-3 vector)) EFRIGSLRNMMQLCTRCLSNCTKKSPNKIASGFFLRLLTSKLMNDIADICKSLASFIKKPFDRGEVESMEDDTNGNLMEVEDQSSMNLFNDYPDSSVSDANEPGESQSTIGAINPLAEEYLSKQDLLFLDMLKFLCLCVTTAQTNTVSFRAADIRRKLLMLIDSSTLEPTKSLHLHMYLMLLKELPGEEYPLPMEDVLELLKPLSNVCSLYRRDQDVCKTILNHVLHVVKNLGQSNMDSENTRDAQGQFLTVIGAFWHLTKERKYIFSVRMALVNCLKTLLEADPYSKWAILNVMGKDFPVNEVFTQFLADNHHQVRMLAAESINRLFQDTKG", "values": [{"measurement": "binding result", "setting": "His-SIRT6", "value": "binds"}]}]}
